We go through nine molecules from patent US20240270821A1, “GIP/GLP1/GCG TRI-RECEPTOR AGONISTS AND USES THEREOF” (priority 2023, published 2024).

Assay in all cases: cell-based or functional assay
Assay [1] addresses T1, human GIP receptor (human) (UniProt P48546).
T1 sequence (looked up): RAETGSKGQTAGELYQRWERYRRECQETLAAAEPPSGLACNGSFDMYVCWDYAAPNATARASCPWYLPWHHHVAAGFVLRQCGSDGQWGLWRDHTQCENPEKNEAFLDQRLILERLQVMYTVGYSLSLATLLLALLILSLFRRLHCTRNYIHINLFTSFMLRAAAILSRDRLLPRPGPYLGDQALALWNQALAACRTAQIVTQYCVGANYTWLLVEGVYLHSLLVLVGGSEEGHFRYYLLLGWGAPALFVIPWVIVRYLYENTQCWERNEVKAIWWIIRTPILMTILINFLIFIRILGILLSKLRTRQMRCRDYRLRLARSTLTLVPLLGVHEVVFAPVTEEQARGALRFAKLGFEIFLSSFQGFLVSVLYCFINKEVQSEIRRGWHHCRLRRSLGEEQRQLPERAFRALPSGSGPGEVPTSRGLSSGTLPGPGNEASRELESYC

For assay [2], the target named is human glucagon receptor (human) (UniProt P47871).
Sequence of human glucagon receptor (human) (P47871 26-477): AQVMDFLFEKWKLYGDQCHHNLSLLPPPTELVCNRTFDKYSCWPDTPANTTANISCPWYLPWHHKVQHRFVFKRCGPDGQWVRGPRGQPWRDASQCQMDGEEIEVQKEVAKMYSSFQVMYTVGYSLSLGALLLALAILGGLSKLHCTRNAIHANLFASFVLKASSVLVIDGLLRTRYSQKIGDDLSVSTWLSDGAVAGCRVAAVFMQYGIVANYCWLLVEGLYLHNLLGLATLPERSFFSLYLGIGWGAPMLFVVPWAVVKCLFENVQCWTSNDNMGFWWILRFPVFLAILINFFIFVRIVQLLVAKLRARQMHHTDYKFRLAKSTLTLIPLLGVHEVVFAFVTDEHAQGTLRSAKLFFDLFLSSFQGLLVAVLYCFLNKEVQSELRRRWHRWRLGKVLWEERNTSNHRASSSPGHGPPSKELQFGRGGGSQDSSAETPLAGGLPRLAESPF
Assay [3] has as its target hGLP-1R (Homo sapiens, UniProt P43220).

Sequence of hGLP-1R (P43220 24-463): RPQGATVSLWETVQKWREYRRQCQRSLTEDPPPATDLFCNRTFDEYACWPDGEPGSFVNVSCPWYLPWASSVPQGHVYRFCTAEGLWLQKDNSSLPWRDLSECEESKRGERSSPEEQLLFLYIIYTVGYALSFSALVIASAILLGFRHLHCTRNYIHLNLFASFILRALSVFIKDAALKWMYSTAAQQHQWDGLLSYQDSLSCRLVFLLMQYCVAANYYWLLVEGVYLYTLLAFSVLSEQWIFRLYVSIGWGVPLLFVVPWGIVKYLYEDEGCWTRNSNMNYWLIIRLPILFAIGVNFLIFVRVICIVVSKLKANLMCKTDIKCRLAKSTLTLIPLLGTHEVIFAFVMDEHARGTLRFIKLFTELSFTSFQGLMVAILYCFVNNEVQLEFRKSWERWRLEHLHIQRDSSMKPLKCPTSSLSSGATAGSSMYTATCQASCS

B1: Example 1131 (peptide)
chain: YXQGTFTSDXSQXLDXKAQXAFIQXLIEXGPSSGEPPPSGGGE
modifications: not fully specified; non-natural residues, C18 diacid acylation, C-terminal amide; synthetic construct; SITE 2: note = 2-Aminoisobutyric Acid; SITE 10: note = 3-(4-Pyridyl)-L-alanine; SITE 13: note = alpha-methyl-leucine; SITE 16: note = L-ornithine; SITE 17: note = Lysine is chemically modified through conjugation of the epsilon-amino group of the Lysine side chain with D-Glutami
With B1, the Relative cAMP EC50 in assay [1] amounted to 0.0472 nM; in assay [2], 8.42 nM; in assay [3], 0.483 nM. Moreover, the cAMP Rel EC50 (1% HSA) is 5.47 nM in assay [1], 1140 nM in assay [2] and 63.7 nM in assay [3].

B2: Example 1133 (peptide)
chain: YXQGTFTSDXXQXLDXKAQXQFIQXLIAGGPSSGEPPPSGGGE
modifications: not fully specified; non-natural residues; C18 diacid-γGlu-e on Lys; C-terminal amide; synthetic construct; SITE 2: note = 2-Aminoisobutyric Acid; SITE 10: note = 3-(4-Pyridyl)-L-alanine; SITE 11: note = alpha-methyl-L-serine; SITE 13: note = alpha-methyl-leucine; SITE 16: note = L-ornithine; SITE 17: note = Lysine is chemically modified through conjugation of the epsilon-amino group
As to B2, the figures for the Relative cAMP EC50 in assay [1], in assay [2] and in assay [3] were 0.0719 nM, 2.95 nM and 0.768 nM, respectively. Also, the cAMP Rel EC50 (1% HSA) in assay [1] came out at 4.24 nM; in assay [2], 216 nM; in assay [3] it was 47.8 nM.

B3: Example 1137 (peptide)
chain: YXQGTFTSDXXQXLDXKAQXQFIQXLIEXGPSSGAPPPSGGGE
modifications: not fully specified; non-natural residues; γ-Glu-C18 diacid acyl; C-terminal amide; synthetic construct; SITE 2: note = 2-Aminoisobutyric Acid; SITE 10: note = 3-(4-Pyridyl)-L-alanine; SITE 11: note = alpha-methyl-L-serine; SITE 13: note = alpha-methyl-leucine; SITE 16: note = L-ornithine; SITE 17: note = Lysine is chemically modified through conjugation of the epsilon-amino group
Regarding B3, the Relative cAMP EC50 stood at 0.0334 nM in assay [1], 14.2 nM in assay [2] and 0.582 nM in assay [3]. For the same molecule, the cAMP Rel EC50 (1% HSA) in assay [1] stood at 2.05 nM; in assay [2] it was 663 nM; in assay [3], 36.2 nM.

B4: Example 1143 (peptide)
chain: YXQGTXTSDXXIXLDXKAQXEFIEXLIEGGPSSGEPPPTGE
modifications: Non-natural residues; K acylated AEEA-γGlu-C18 diacid; C-terminal amide; synthetic construct; SITE 2: note = 2-Aminoisobutyric Acid; SITE 6: note = alpha-methyl-2-fluoro-L-phenylalanine; SITE 10: note = 3-(4-Pyridyl)-L-alanine; SITE 11: note = alpha-methyl-L-serine; SITE 13: note = alpha-methyl-leucine; SITE 16: note = L-ornithine; SITE 17: note = Lysine is chemically mo
Turning to B4, the Relative cAMP EC50 in assay [1] worked out at 0.0087 nM; in assay [2] it was 1.42 nM; in assay [3] it was 0.381 nM. In addition, the cAMP Rel EC50 (1% HSA) in assay [1] came to 0.751 nM; in assay [2], 182 nM; in assay [3], 49.6 nM.

B5: Example 1149 (peptide)
chain: YXQGTXTSDXXIXLDXKAQXEFIEXLIEGGPSSGEPPPEGE
modifications: non-natural residues; AEEA-γGlu-C18 diacid on Lys; C-terminal amide; synthetic construct; SITE 2: note = 2-Aminoisobutyric Acid; SITE 6: note = alpha-methyl-2-fluoro-L-phenylalanine; SITE 10: note = 3-(4-Pyridyl)-L-alanine; SITE 11: note = alpha-methyl-L-serine; SITE 13: note = alpha-methyl-leucine; SITE 16: note = L-ornithine; SITE 17: note = Lysine is chemically mo
Turning to B5, the results for the Relative cAMP EC50 in assay [1], in assay [2] and in assay [3] were 0.00804 nM, 1.37 nM and 0.352 nM, respectively. In addition, the cAMP Rel EC50 (1% HSA) in assay [1] came to 0.96 nM; in assay [2], 184 nM; in assay [3], 52.2 nM.

B6: Example 1151 (peptide)
chain: YXQGTXTSDXXIXLDXKAQXEFIEXLIEGGPSSGEPPPSGE
modifications: not fully specified; non-natural residues; acylated Lys; C-terminal amide; synthetic construct; SITE 2: note = 2-Aminoisobutyric Acid; SITE 6: note = alpha-methyl-2-fluoro-L-phenylalanine; SITE 10: note = 3-(4-Pyridyl)-L-alanine; SITE 11: note = alpha-methyl-L-serine; SITE 13: note = alpha-methyl-leucine; SITE 16: note = L-ornithine; SITE 17: note = Lysine is chemically mo
Turning to B6, the Relative cAMP EC50 in assay [1] is 0.00339 nM; in assay [2], 1.31 nM; in assay [3], 0.262 nM. Moreover, the cAMP Rel EC50 (1% HSA) in assay [1] came to 0.287 nM; in assay [2], 206 nM; in assay [3] it was 40 nM.

B7: Example 1145 (peptide)
chain: YXQGTXTSDXXIXLDXKAQXEFIEXLIEGGPSSGEPPPGGE
modifications: non-natural residues; lipidated Lys AEEA-γGlu-C18 diacid; C-term amide; synthetic construct; SITE 2: note = 2-Aminoisobutyric Acid; SITE 6: note = alpha-methyl-2-fluoro-L-phenylalanine; SITE 10: note = 3-(4-Pyridyl)-L-alanine; SITE 11: note = alpha-methyl-L-serine; SITE 13: note = alpha-methyl-leucine; SITE 16: note = L-ornithine; SITE 17: note = Lysine is chemically mo
Turning to B7, the values for the Relative cAMP EC50 in assay [1], in assay [2] and in assay [3] were 0.00689 nM, 1.07 nM and 0.313 nM, respectively. In addition, the cAMP Rel EC50 (1% HSA) in assay [1] worked out at 0.848 nM; in assay [2], 148 nM; in assay [3], 39.1 nM.

B8: Example 1147 (peptide)
chain: YXQGTXTSDXXIXLDXKAQXEFIEXLIEGGPSSGEPPPESE
modifications: non-natural residues; K acylated AEEA-γGlu-C18 diacid; C-amide; synthetic construct; SITE 2: note = 2-Aminoisobutyric Acid; SITE 6: note = alpha-methyl-2-fluoro-L-phenylalanine; SITE 10: note = 3-(4-Pyridyl)-L-alanine; SITE 11: note = alpha-methyl-L-serine; SITE 13: note = alpha-methyl-leucine; SITE 16: note = L-ornithine; SITE 17: note = Lysine is chemically mo
For B8, the figures for the Relative cAMP EC50 in assay [1], in assay [2] and in assay [3] were 0.00753 nM, 1.17 nM and 0.347 nM, respectively. Besides, the cAMP Rel EC50 (1% HSA) in assay [1] came to 0.831 nM; in assay [2], 167 nM; in assay [3], 45.4 nM.

B9: Example 1152 (peptide)
chain: YXQGTXTSDXXIXLDXKAQXEFIEXLVEGGPSSGAPPPTGE
modifications: not fully specified; acylated lysine AEEA-γGlu-C18 diacid; non-natural residues; C-terminal amide; synthetic construct; SITE 2: note = 2-Aminoisobutyric Acid; SITE 6: note = alpha-methyl-2-fluoro-L-phenylalanine; SITE 10: note = 3-(4-Pyridyl)-L-alanine; SITE 11: note = alpha-methyl-L-serine; SITE 13: note = alpha-methyl-leucine; SITE 16: note = L-ornithine; SITE 17: note = Lysine is chemically mo
B9: the Relative cAMP EC50 was found to be 0.0101 nM in assay [1], 2.32 nM in assay [2] and 0.371 nM in assay [3]. Moreover, the cAMP Rel EC50 (in the presence of 1% HSA) in assay [1] was found to be 1.21 nM; in assay [2] it was 287 nM; in assay [3], 43.8 nM.
